Here are results for two sequences from paper PMC2880176.

Data set [1] relates to MBP-#γA (5-finger artificial zinc finger protein) (artificial). In words: EMSA.
Data set [2] has as its system MBP-#γA-opt (5-finger artificial zinc finger protein) (artificial). In words: EMSA. (Mobility shift assays separate free from complexed probe on a gel.)
For data set [3], the system named is gg1 (6-finger artificial zinc finger protein) (artificial). The settings on record: cited from earlier work.

Turning to “GATGCCGTTTGAGGT (double strand) [γ-globin promoter #γA target site]”, the results for the Kd in data set [1] and in data set [2] were 3.2 nM and 7.1 nM, respectively.

As for “GTCAAGGCAAGGCTGGCC (double strand) [gg1 target site in γ-globin promoter]”, the dissociation constant (Kd) (as a rule, the concentration at which binding is half-saturated) in data set [3] is 0.7 nM.
